# Reference: ChEMBL document CHEMBL2073843, “Characterization of the role of polar amino acid residues within predicted transmembrane helix 17 in determining the substrate specificity of multidrug resistance protein 3” (Biochemistry, 2003)
# Substrate: C[C@]12CC[C@@H]3c4ccc(O)cc4CC[C@H]3[C@@H]1CC[C@@H]2O[C@@H]1O[C@H](C(=O)O)[C@@H](O)[C@H](O)[C@H]1O
# Details: HEK293; Membrane vesicle
# Description: TP_TRANSPORTER: uptake in membrane vesicles from MRP3-expressing HEK cells
protein,measurement,value
"Multidrug resistance associated protein (Homo sapiens), Q96QA9 (protein) MDALCGSGELGSKFWDSNLSVHTENPDLTPCFQNSLLAWVPCIYLWVALPCYLLYLRHHCRGYIILSHLSKLKMVLGVLLWCVSWADLFYSFHGLVHGRAPAPVFFVTPLVVGVTMLLATLLIQYERLQGVQSSGVLIIFWFLCVVCAIVPFRSKILLAKAEGEISDPFRFTTFYIHFALVLSALILACFREKPPFFSAKNVDPNPYPETSAGFLSRLFFWWFTKMAIYGYRHPLEEKDLWSLKEEDRSQMVVQQLLEAWRKQEKQTARHKASAAPGKNASGEDEVLLGARPRPRKPSFLKALLATFGSSFLISACFKLIQDLLSFINPQLLSILIRFISNPMAPSWWGFLVAGLMFLCSMMQSLILQHYYHYIFVTGVKFRTGIMGVIYRKALVITNSVKRASTVGEIVNLMSVDAQRFMDLAPFLNLLWSAPLQIILAIYFLWQNLGPSVLAGVAFMVLLIPLNGAVAVKMRAFQVKQMKLKDSRIKLMSEILNGIKVLKLYAWEPSFLKQVEGIRQGELQLLRTAAYLHTTTTFTWMCSPFLVTLITLWVYVYVDPNNVLDAEKAFVSVSLFNILRLPLNMLPQLISNLTQASVSLKRIQQFLSQEELDPQSVERKTISPGYAITIHSGTFTWAQDLPPTLHSLDIQVPKGALVAVVGPVGCGKSSLVSALLGEMEKLEGKVHMKGSVAYVPQQAWIQNCTLQENVLFGKALNPKRYQQTLEACALLADLEMLPGGDQTEIGEKGINLSGGQRQRVSLARAVYSDADIFLLDDPLSAVDSHVAKHIFDHVIGPEGVLAGKTRVLVTHGISFLPQTDFIIVLADGQVSEMGPYPALLQRNGSFANFLCNYAPDEDQGHLEDSWTALEGAEDKEALLIEDTLSNHTDLTDNDPVTYVVQKQFMRQLSALSSDGEGQGRPVPRRHLGPSEKVQVTEAKADGALTQEEKAAIGTVELSVFWDYAKAVGLCTTLAICLLYVGQSAAAIGANVWLSAWTNDAMADSRQNNTSLRLGVYAALGILQGFLVMLAAMAMAAGGIQAARVLHQALLHNKIRSPQSFFDTTPSGRILNCFSKDIYVVDEVLAPVILMLLNSFFNAISTLVVIMASTPLFTVVILPLAVLYTLVQRFYAATSRQLKRLESVSRSPIYSHFSETVTGASVIRAYNRSRDFEIISDTKVDANQRSCYPYIISNRWLSIGVEFVGNCVVLFAALFAVIGRSSLNPGLVGLSVSYSLQVTFALNWMIRMMSDLESNIVAVERVKEYSKTETEAPWVVEGSRPPEGWPPRGEVEFRNYSVRYRPGLDLVLRDLSLHVHGGEKVGIVGRTGAGKSSMTLCLFRILEAAKGEIRIDGLNVADIGDPILFSGTLRMNLDPFGSYSEEDIWWALELSHLHTFVSSQPAGLDFQCSEGGENLSVGQRQLVCLARALLRKSRILVLDEATAAIDLETDNLIQATIRTQFDTCTVLTIAHRLNTIMDYTRVLVLDKGVVAEFDSPANLIAARGIFYGMARDAGLA",Km,29 µM
